In article PMC7056577:
Where “and” joins values, the source holds several entries; their conditions need not be identical. Equal values may be shown once.

Target: T1, Arabidopsis CRY1 expressed in transgenic Arabidopsis (GFP-CRY1 and Myc-CRY1) (Arabidopsis), Q43125
T1 chain: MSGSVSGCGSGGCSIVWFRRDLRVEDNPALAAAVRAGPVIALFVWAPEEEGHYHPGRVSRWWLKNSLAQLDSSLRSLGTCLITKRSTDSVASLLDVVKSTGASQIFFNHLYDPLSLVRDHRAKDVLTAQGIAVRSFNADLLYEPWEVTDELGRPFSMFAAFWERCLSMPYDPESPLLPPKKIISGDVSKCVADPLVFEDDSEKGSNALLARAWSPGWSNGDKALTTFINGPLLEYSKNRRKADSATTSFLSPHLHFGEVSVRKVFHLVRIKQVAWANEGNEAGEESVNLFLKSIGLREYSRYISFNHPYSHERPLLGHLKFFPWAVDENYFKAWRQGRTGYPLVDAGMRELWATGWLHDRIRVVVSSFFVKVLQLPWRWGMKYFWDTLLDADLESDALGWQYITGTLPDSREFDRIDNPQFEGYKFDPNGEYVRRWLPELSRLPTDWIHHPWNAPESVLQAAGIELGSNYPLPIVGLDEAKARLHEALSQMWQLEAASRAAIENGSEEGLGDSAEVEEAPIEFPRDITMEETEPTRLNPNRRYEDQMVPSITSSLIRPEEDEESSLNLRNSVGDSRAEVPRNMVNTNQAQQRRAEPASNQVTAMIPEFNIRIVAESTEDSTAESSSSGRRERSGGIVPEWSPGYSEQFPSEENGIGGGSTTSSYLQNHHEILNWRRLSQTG
Assay: co-IP
Settings: remark: other sources report otherwise

B1: Arabidopsis CRY1 expressed in transgenic Arabidopsis (GFP-CRY1 and Myc-CRY1), Q43125 1-681 (natural protein)
chain: T1 chain
B1 was tested, and the 60F50 (fluence rate of blue light for 50% photooligomerization after 60 seconds) was 14.9 μmolm^−2s^−1 and 16.2 μmolm^−2s^−1.
